This note sets out measurements from patent US8871276B2, “Beta-casein assemblies for mucosal delivery of therapeutic bioactive agents” (Technion Research and Development Foundation Ltd., priority 2008, dated 2014).

Common to all, as to format: physicochemical
One data set is described as follows: Cryo-TEM of micelles. As for the experimental part: Specimens were prepared either in an automated vitrification device (Vitrobot, FEI, The Netherlands) or in the controlled environment vitrification system (CEVS) (Bellare et al. Electron Microsc. Technique, 1988, 10; 87-111) at 24° C. and 100% relative humidity to avoid loss of volatiles. Using the latter, the solutions were incubated in the CEVS at the desired temperature for 1 h. Then, a 7 μL drop of each solution was placed on a TEM copper grid covered with a perforated carbon film (Pelco International) and blotted with filter paper to form a thin liquid film of the sample (100-200 nm thick). The thinned sample was plunged into liquid ethane at its freezing temperature (−183° C.) to form a vitrified specimen and then transferred to liquid nitrogen ([…]) for storage. Some of the vitrified specimens were examined in a Philips CM120 transmission electron microscope. (Philips, The Netherlands) operating at an accelerating voltage of 120 kV. An Oxford CT3500 (Oxford Instruments) cryo-specimen holder that maintained the specimens below −175° C. during sample transfer and observation Other specimens were examined in a Tecnai 12 G2 TEM (FEI) using a Gatan 626 cryo-holder. Specimens were studied in a low-dose imaging mode to minimize beam exposure and electron beam radiation damage.
Images were recorded digitally on a cooled Gatan MultiScan 791 CCD camera using DigitalMicrograph 3.1 software (Gatan) in the low-dose imaging mode to minimize beam exposure and electron-beam radiation damage. Alternatively, images were recorded in the Tecnai on a high-resolution 2 k×2 k Ultrascan 1000 cooled CCD (Gatan, UK), using the Digital Micrograph 3.6 software (Gatan, UK).
The structural characteristics of the micelles in the two pH environments were studied by cryo-TEM and SAXS (Small Angle X-ray Scattering). Cryo-TEM was used to determine the shape of the micelles and to estimate their dimensions between 4 and 40° C. This information was further used to accurately calculate the micelles' dimensions from the SAXS data, and to study how the size and shape are affected by temperature. […]

The nature of data set [1]: Small angle X-ray scattering (SAXS) of micelles. The note with it: 1 wt % β-casein, empty or loaded 1:8 protein:celecoxib, pH ~7.
A short description of data set [2]: Dynamic light scattering (DLS) size distribution. As for the experimental part:
DLS and Zeta potential measurements performed on a combined DLS and zeta potential analyzer (Nicomp 380 ZLS zeta potential/particle sizer, USA), at 25° C. were performed for size distribution and electrostatics characterization. For DLS measurements the scattered light intensity was detected with an Avalanche Photo Diode (APD) detector, used at a fixed angle of 90°. Laser wavelength was 658 nm, operating at 90 mW. Mono- bi- or tri-modal distributions were calculated from the scattered light intensity fluctuations, by Nicomp™ cumulants analysis of the intensity autocorrelation function. Zeta potential measurements were performed in triplicate.

Data set [3] can be described thus: Small angle X-ray scattering (SAXS) of micelles. As for the experimental part: The small angle X-ray scattering equipment consisted of a SAXSess camera (Anton-Paar, Graz, Austria) connected to an X-ray generator (Philips, PW 1730/10) operating at 40 kV and 50 mA with a sealed-tube Cu anode. A Gael mirror was used to convert the divergent polychromatic X-ray beam into a focused line-shaped beam of Cu Kα radiation (λ=0.154 nm). The 2D scattering pattern was recorded by a PI-SCX fused fiber optic taper CCD camera from Princeton Instruments, which is a division of Roper Scientific, Inc. (Trenton, N.J., USA). The used CCD detector features a 2084×2084 array with 24×24 μm pixel size (chip size: 50×50 mm). The CCD was operated at −30° C. with 10° C. water-assisted cooling to reduce the thermally generated charge. Cosmic ray correction and background subtraction were performed on the 2D image before further data processing. The 2D image was integrated into the one-dimensional scattering function within a band of 10 mm. The measurement time was 30 min for each scattering curve (6 images of 5 minutes were taken to assist the cosmic ray correction).
The molecular weight of the scattering aggregates were calculated according to Eq. 1:
[formula] where M is the molecular weight, dΣ(0)/dΩ (cm^−1) the forward scattering intensity at q=0, c (g/cm^3) the β-casein concentration, NA the Avogadro number, and ΔρM (cm/g) the scattering length difference per mass, given by: ΔρM=Δρ ν (2)
The scattering length difference Δρ (cm^−2) was calculated using the known chemical composition of the protein and the solvent, and ν (cm^3/g), the specific volume of the protein in the solution that was calculated via density measurement of the solvent and the solution. The micelle aggregation number was then calculated by dividing the molecular weight of the micelles determined with Eq. 1, by the molecular weight of a single protein molecule.
For a particle of arbitrary shape with a scattering density difference of Δρ(r), the pair distance distribution function p(r) (PDDF) is given by: p(r)=r^2Δ ρ^2(r) (3) where Δ ρ^2(r) is the convolution square of Δρ(r) averaged for all directions in space. The PDDF is related to the scattered intensity l(q) by a Fourier transformation, and it enables the determination of the overall shape and size of the scattering objects.
[formula] λ is the wavelength of the incident radiation and θ is the angle between the scattered and incident beam. The function ƒ(r)=p(r)/r (6) is useful to identify flat plate-like particles, although it has no direct physical meaning. For lamellae, this function starts with a linearly increasing part and becomes almost flat when r is equal to the thickness of the lamella. For flat particles with a finite base area, the outer part decreases linearly because of boundary losses. The thickness of the lamella can then be read from the transition point.
The structural characteristics of the micelles in the two pH environments were studied by cryo-TEM and SAXS (Small Angle X-ray Scattering). Cryo-TEM was used to determine the shape of the micelles and to estimate their dimensions between 4 and 40° C. This information was further used to accurately calculate the micelles' dimensions from the SAXS data, and to study how the size and shape are affected by temperature. SAXS measurements also provided the critical micelle concentration (CMC) and the micelle aggregation numbers as a function of temperature. Experiments were performed in the concentration range of 0.1-40 mg/mL protein, at low pH (between 2.1 and 2.6) in dilute lactic acid solution (6 wt %) or HCl and in aqueous solutions at pH 6.7-7.3 in absence of salts or the presence of up to 0.1M NaCl.
SAXS measurements were used to determine the shape and dimensions of the micelles at low pH more precisely, and to evaluate the micelle molecular weight (i.e., the aggregation number). The scattering curves of 20 mg/mL β-casein in lactic acid solution (pH 2.6, IS 0.0022) at different temperatures are shown in FIG. 3a. […]

[4] abbreviates: lactic acid solution pH 2.6, 4-40 °C.
The mark [5] stands for this setting: 0.5% β-casein, empty or loaded 1:8 celecoxib, pH ~7.
The mark [6] stands for this setting: 1 wt % β-casein, empty or loaded 1:8 protein:celecoxib, pH ~7.

B1: β-casein: bovine β-casein self-assembled into unloaded micelles in acidic or neutral buffer (protein, UniProt P02666 16-224, looked up)
Beta-casein: RELEELNVPGEIVESLSSSEESITRINKKIEKFQSEEQQQTEDELQDKIHPFAQTQSLVYPFPGPIPNSLPQNIPPLTQTPVVVPPFLQPEVMGVSKVKEAMAPKHKEMPFPKYPVEPFTESQSLTLTDVENLHLPLPLLQSWMHQPHQPLPPTVMFPPQSVLSLSQSKVLPVPQKAVPYPQRDMPIQAFLLYQEPVLGPVRGPFPIIV
modifications: self-assembled micelles
notes: bovine β-casein self-assembled into unloaded micelles in acidic or neutral buffer
As to B1, in the data set “Cryo-TEM of micelles” (hepes buffer pH ~7), the “Maximum dimension of empty micelles (cryo-TEM)” value is recorded as “about 22 nm”. The “Micelle surface length (cryo-TEM)” value in the data set “Cryo-TEM of micelles” (setting [4]) is listed as 20-25 nm. Besides, the “Micelle thickness (cryo-TEM)” value in the data set “Cryo-TEM of micelles” (setting [4]) is reported as 3-4 nm. Also, the Density in data set [1] worked out at 1.23 g/mL. Moreover, in data set [2] (setting [5]), the “Micelle diameter (DLS), after lyophilization and re-suspension” value was 21 nm. Besides, the “Micelle diameter (DLS), before drying” value in data set [2] (setting [5]) amounted to 19 nm. In addition, the “Micelle diameter (DLS)” value in data set [2] (2 wt % β-casein, empty or loaded 1:1 budesonide, hepes buffer pH 7.0) was found to be 19.6±3.4 nm. Further, the “Maximum micelle dimension (SAXS PDDF)” value in data set [3] (20 mg/mL, pH 2.6, all temperatures 4-40 °C) was 35-40 nm. In addition, in data set [3] (setting [6]), the “Rg (from Guinier apr.)” value is recorded as 7.8 nm. The “V, from a, b” value in data set [3] (setting [6]) is on record as 2410 nm^3. The “Micelle Dimensions: diameter” value in data set [3] (pH 2.6, 4-40 °C) is given as 25 nm in. Also, the “Micelle Shape” value in data set [3] (pH 2.6, 4 °C) was “disc”; in data set [3] (pH 2.6, 16 °C), “disc”; in data set [3] (pH 2.6, 25 °C) it was “disc”; in data set [3] (pH 2.6, 40 °C), “disc”. In addition, the Nagg in data set [3] (pH 2.6, 4 °C) was 8; in data set [3] (pH 2.6, 4 °C, concentrations of 0.5 wt % and below), “approximately 2”; in data set [3] (pH 2.6, 16 °C), 10; in data set [3] (pH 2.6, 25 °C), 11; in data set [3] (pH 2.6, 40 °C) it was 9. In addition, the CMC in data set [3] (pH 2.6, 25 °C, by SAXS) is 0.1-0.2 wt %.
